Data taken from paper PMC4802056.

Biological target: taxol-stabilized microtubules
Assay: co-sedimentation; microtubule spin-down from DT40 lysates (about 2 mg/ml) mixed with taxol-stabilized microtubules (0.2 mg/ml) or non-taxol tubulin, 30 °C 30 min, pelleted through a 1 M sucrose cushion in BRB80, western blotting

CEP215(ΔCM1)-TAP (domain or fragment)
fold reduction in microtubule binding compared with CEP215-TAP and CEP215(ΔHBR)-TAP: 3.4 fold
